Reference: publication PMC3176292, “Mutations in Protein-Binding Hot-Spots on the Hub Protein Smad3 Differentially Affect Its Protein Interactions and Smad3-Regulated Gene Expression” (PLoS ONE, 2011)
Substitutions are numbered along the chain they refer to. In names and notes the source's numbering stands.

T1: Flag-SkiW274E, full length (UniProt P12755 1-728, W274E)
T1 construct: plasmid pCMV5b-Flag-SkiW274E (from K. Luo); also called SkiW274E FL; SKI274E; source: HEK-293, transfected, in lysate
T1 sequence (looked up): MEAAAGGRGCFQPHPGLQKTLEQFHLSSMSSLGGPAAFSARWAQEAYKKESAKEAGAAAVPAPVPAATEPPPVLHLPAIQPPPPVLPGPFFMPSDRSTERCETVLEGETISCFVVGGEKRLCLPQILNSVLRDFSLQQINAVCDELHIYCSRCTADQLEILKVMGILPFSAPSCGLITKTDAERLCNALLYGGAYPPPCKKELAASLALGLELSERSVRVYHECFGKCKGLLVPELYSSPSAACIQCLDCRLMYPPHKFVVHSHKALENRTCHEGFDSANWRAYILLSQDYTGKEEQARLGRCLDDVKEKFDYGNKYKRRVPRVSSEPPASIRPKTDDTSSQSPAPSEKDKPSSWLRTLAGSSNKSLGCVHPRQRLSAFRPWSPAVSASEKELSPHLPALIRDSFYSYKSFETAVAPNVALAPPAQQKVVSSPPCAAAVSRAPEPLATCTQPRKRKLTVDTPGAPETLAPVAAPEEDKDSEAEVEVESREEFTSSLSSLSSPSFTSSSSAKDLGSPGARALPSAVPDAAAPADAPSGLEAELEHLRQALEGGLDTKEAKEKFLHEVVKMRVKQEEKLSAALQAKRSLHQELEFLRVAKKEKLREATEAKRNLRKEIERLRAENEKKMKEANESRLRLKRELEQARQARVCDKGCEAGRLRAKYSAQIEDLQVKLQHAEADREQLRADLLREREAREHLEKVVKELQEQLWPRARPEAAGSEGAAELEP

T2: SIP1 Smad-binding domain (amino acids 315–487) on the 3xFlag-thioredoxin scaffold (UniProt Q9R0G7 315-487)
T2 construct: SIP1, amino acids 315–487; amplified from pACT2-SIP1-315-487 (from D. Huylebroeck), which I recall as a mouse clone; cloned into the RsrII site of pCI-3xFLAG-Trx; also called Sip1 315–487; TrxSIP1; source: HEK-293, transfected, in lysate
T2 sequence (looked up): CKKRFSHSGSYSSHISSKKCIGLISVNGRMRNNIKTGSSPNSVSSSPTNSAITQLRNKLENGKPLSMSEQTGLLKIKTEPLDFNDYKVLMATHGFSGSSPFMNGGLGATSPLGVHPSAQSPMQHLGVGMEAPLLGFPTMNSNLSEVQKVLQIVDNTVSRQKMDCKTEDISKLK

T3: SARA Smad-binding domain (amino acids 665–721) on the 3xFlag-thioredoxin scaffold (UniProt O95405 767-823)
T3 construct: SARA, amino acids 665–721; cloned into the unique RsrII site of pCI-3xFLAG-Trx; also called SARA aa665–721; TrxSARA; source: HEK-293, transfected, in lysate
T3 sequence (looked up): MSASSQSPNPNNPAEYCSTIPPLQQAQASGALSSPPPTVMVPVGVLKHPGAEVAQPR

B1: Renilla luciferase-Smad3 R243A (natural protein, UniProt P84022 1-425, looked up)
chain: MSSILPFTPPIVKRLLGWKKGEQNGQEEKWCEKAVKSLVKKLKKTGQLDELEKAITTQNVNTKCITIPRSLDGRLQVSHRKGLPHVIYCRLWRWPDLHSHHELRAMELCEFAFNMKKDEVCVNPYHYQRVETPVLPPVLVPRHTEIPAEFPPLDDYSHSIPENTNFPAGIEPQSNIPETPPPGYLSEDGETSDHQMNHSMDAGSPNLSPNPMSPAHNNLDLQPVTYCEPAFWCSISYYELNQAVGETFHASQPSMTVDGFTDPSNSERFCLGLLSNVNRNAAVELTRRHIGRGVRLYYIGGEVFAECLSDSAIFVQSPNCNQRYGWHPATVCKIPPGCNLKIFNNQEFAALLAQSVNQGFEAVYQLTRMCTIRMSFVKGWGAEYRRQTVTSTPCWIELHLNGPLQWLDKVLTQMGSPSIRCSSVS
notes: Smad3; source: HEK-293, transfected together with constitutively active Alk5, in lysate
B2: Renilla luciferase-Smad3 R268A (natural protein, UniProt P84022 1-425, looked up)
chain: B1 chain with A243R, R268A
notes: as for B1
B3: Renilla luciferase-Smad3 R292A (natural protein, UniProt P84022 1-425, looked up)
chain: B1 chain with A243R, R292A
notes: as for B1
B4: Renilla luciferase-Smad3 D408H (natural protein, UniProt P84022 1-425, looked up)
chain: B1 chain with A243R, D408H
notes: as for B1
B5: Renilla luciferase-Smad3 Y238A (natural protein, UniProt P84022 1-425, looked up)
chain: B1 chain with Y238A, A243R
notes: as for B1
B6: Renilla luciferase-Smad3 Y384A (natural protein, UniProt P84022 1-425, looked up)
chain: B1 chain with A243R, Y384A
notes: as for B1
B7: Renilla luciferase-Smad3 C338A (natural protein, UniProt P84022 1-425, looked up)
chain: B1 chain with A243R, C338A
notes: as for B1
B8: Renilla luciferase-Smad3 W406A (natural protein, UniProt P84022 1-425, looked up)
chain: B1 chain with A243R, W406A
notes: as for B1
B9: Renilla luciferase-Smad3 V224A (natural protein, UniProt P84022 1-425, looked up)
chain: B1 chain with V224A, A243R
notes: as for B1
B10: Renilla luciferase-Smad3 V356R (natural protein, UniProt P84022 1-425, looked up)
chain: B1 chain with A243R, V356R
notes: as for B1
B11: Renilla luciferase-Smad3 Q322A/Y324A (natural protein, UniProt P84022 1-425, looked up)
chain: B1 chain with A243R, Q322A, Y324A
notes: as for B1
B12: Renilla luciferase-Smad3 E267A (natural protein, UniProt P84022 1-425, looked up)
chain: B1 chain with A243R, E267A
notes: as for B1
B13: Renilla luciferase-Smad3 L340A (natural protein, UniProt P84022 1-425, looked up)
chain: B1 chain with A243R, L340A
notes: as for B1
B14: Renilla luciferase-Smad3 W326A (natural protein, UniProt P84022 1-425, looked up)
chain: B1 chain with A243R, W326A
notes: as for B1
B15: Renilla luciferase-Smad3 P335A/P336A (natural protein, UniProt P84022 1-425, looked up)
chain: B1 chain with A243R, P335A, P336A
notes: as for B1
B16: Renilla luciferase-Smad3 S254A (natural protein, UniProt P84022 1-425, looked up)
chain: B1 chain with A243R, S254A
notes: as for B1
B17: Renilla luciferase-Smad3 K341A (natural protein, UniProt P84022 1-425, looked up)
chain: B1 chain with A243R, K341A
notes: as for B1
B18: Renilla luciferase-Smad3 Y226A (natural protein, UniProt P84022 1-425, looked up)
chain: B1 chain with Y226A, A243R
notes: as for B1
B19: Renilla luciferase-Smad3 Y298A (natural protein, UniProt P84022 1-425, looked up)
chain: B1 chain with A243R, Y298A
notes: as for B1
B20: Renilla luciferase-Smad3 Y297A (natural protein, UniProt P84022 1-425, looked up)
chain: B1 chain with A243R, Y297A
notes: as for B1

Biological target: T1, Flag-SkiW274E, full length
Test: co-IP; LUMIER: Renilla luciferase-Smad3 and Flag-tagged partner co-expressed with constitutively active Alk5 in HEK-293; Flag protein captured from cleared lysate (TNE: 10 mM Tris-HCl pH 7.8, 150 mM NaCl, 1 mM EDTA, 1% Igepal CA-630) on anti-Flag 96-well plates, 2 h at 4 °C; co-precipitated Renilla luciferase activity, TrxGA background subtracted, percent of wild-type Smad3
Conditions: partners not purified

Binder	percent binding relative to wild-type Smad3 [%]
B1	72
B2	62
B3	59
B4	31
B5	44
B6	53

Biological target: T2, SIP1 Smad-binding domain (amino acids …)
Test: as above
Conditions: partners not purified

Binder	percent binding relative to wild-type Smad3 [%]
B1	28
B2	13
B3	32
B4	41
B5	15
B6	41

Biological target: T3, SARA Smad-binding domain (amino acids …)
Test: as above
Conditions: partners not purified

Binder	percent binding relative to wild-type Smad3 [%]
B7	94
B8	1
B9	21
B10	1
B11	3
B12	81
B13	12
B14	4
B15	2
B16	103
B17	4
B18	3
B19	73

Biological target: T2, SIP1 Smad-binding domain (amino acids …)
Test: as above
Conditions: partners not purified
Remark: another data set of the same source

Binder	percent binding relative to wild-type Smad3 [%]
B7	44
B20	80
B8	15
B9	339
B10	7
B11	162
B12	88
B13	159
B14	319
B15	123
B16	128
B17	66
B18	7
B19	33
